# Assay results published in patent US20230340054A1.
# Target: IL-2 receptor on the cell surface (high and intermediate affinity receptors on human PBMC subsets)
# Assay: cell-based or functional assay
Substance,pSTAT5α levels in CD4+ cells,pSTAT5α levels in CD8+ cells
IgG fusion IL-2 mutein E106W,1.02,1.18
IgG fusion IL-2 mutein I92Y,1.94,1.12
IgG fusion IL-2 mutein N88S,1.2,1.04
IgG fusion IL-2 mutein K48S,2.23,1.16
IgG fusion IL-2 mutein P65N,1.71,1.07
IgG fusion IL-2 mutein M23I,1.83,1.16
IgG fusion IL-2 mutein L72R,1.6,0.93
IgG fusion IL-2 mutein K48V,1.12,1.18
IgG fusion IL-2 mutein T111H,1.9,1.14
IgG fusion IL-2 mutein P65Q,1.6,1.13
IgG fusion IL-2 mutein D84E,1.61,0.957
IgG fusion IL-2 mutein L72F,1.65,0.939
IgG fusion IL-2 mutein D20N,2.23,1.5
IgG fusion IL-2 mutein E61W,1.3,1.18
IgG fusion IL-2 mutein D109K,1.77,1.32
IgG fusion IL-2 mutein H16Y,1.75,1.21
IgG fusion IL-2 mutein M104I,1.25,0.851
IgG fusion IL-2 mutein L12V,1.64,1.03
IgG fusion IL-2 mutein P34Y,1.11,1.29
IgG fusion IL-2 mutein D20T,1.46,1.7
IgG fusion IL-2 mutein T111Q,2.1,1.28
IgG fusion IL-2 mutein L19I,2.22,1.04
IgG fusion IL-2 mutein D84S,1.2,1.05

Substance,pSTAT5α levels in CD4+ cells,pSTAT5α levels in CD8+ cells
IgG fusion IL-2 mutein T111N,1.64,1.08
IgG fusion IL-2 mutein E68R,2.36,1.22
IgG fusion IL-2 mutein E95N,0.981,1.05
IgG fusion IL-2 mutein E68Y,2.6,1.28
IgG fusion IL-2 mutein E68Q,2,1.4
IgG fusion IL-2 mutein M104H,1.01,0.989
IgG fusion IL-2 mutein D109H,1.01,1.1
IgG fusion IL-2 mutein L12Y,1.3,1.01
IgG fusion IL-2 mutein P65R,1.67,1.15
IgG fusion IL-2 mutein E68W,1.96,0.997
IgG fusion IL-2 mutein E15S,1.66,0.932
IgG fusion IL-2 mutein T111M,1.74,1.23
IgG fusion IL-2 mutein M23L,1.91,1.05
IgG fusion IL-2 mutein E95D,1.62,1.02
IgG fusion IL-2 mutein E68F,2.19,0.946
IgG fusion IL-2 mutein L19F,1.49,1.06
IgG fusion IL-2 mutein H16K,1.05,1.09
IgG fusion IL-2 mutein S87T,2,1.07
IgG fusion IL-2 mutein E95S,1.47,1
IgG fusion IL-2 mutein E15T,3.06,1.79
IgG fusion IL-2 mutein D109R,1.77,1.27
IgG fusion IL-2 mutein K43W,1.24,1.16
IgG fusion IL-2 mutein T111W,1.58,1.15

Substance,pSTAT5α levels in CD4+ cells,pSTAT5α levels in CD8+ cells
IgG fusion IL-2 mutein F42M,1.98,1.18
IgG fusion IL-2 mutein K35T,2.39,1.19
IgG fusion IL-2 mutein E95T,1.64,1.02
IgG fusion IL-2 mutein I92V,0.981,1.08
IgG fusion IL-2 mutein E68L,2.01,1.16
IgG fusion IL-2 mutein L12I,2.35,1.59
IgG fusion IL-2 mutein T111S,2.47,1.24
IgG fusion IL-2 mutein N71W,1.58,1.02
IgG fusion IL-2 mutein H16R,1.4,1.63
IgG fusion IL-2 mutein S87E,1,0.825
IgG fusion IL-2 mutein E15D,1.09,1.01
IgG fusion IL-2 mutein D84T,1.21,0.96
IgG fusion IL-2 mutein I92W,1.11,0.986
IgG fusion IL-2 mutein P34W,1.89,1.1
IgG fusion IL-2 mutein I92F,1.77,1.2
IgG fusion IL-2 mutein P34F,2.85,1.88
IgG fusion IL-2 mutein P65E,1.51,1.05
IgG fusion IL-2 mutein L19V,1.31,0.953
IgG fusion IL-2 mutein D109W,1.53,1.05
IgG fusion IL-2 mutein D109M,1.28,0.906
IgG fusion IL-2 mutein E95Q,1.56,1.05
IgG fusion IL-2 mutein K48I,0.944,0.868
IgG fusion IL-2 mutein P65K,1.59,1.31
